Data on 2 molecules can be found in patent US20090235392A1 (PIONEER HI BRED INTERNATIONAL, published 2009).

In the test the target is T1, GAL4BD:CKI2(590-922) (Arabidopsis thaliana).
T1 construct: Yeast two-hybrid bait; Any linker or tag from the vector is not described; also called AT-CKI2(590-922); pRM430
The test is described as follows: yeast two-hybrid. From the text: Clones representing two independent genes, ARABIDOPSIS HISTIDINE PHOSPHOTRANSFER PROTEIN 3 (AHP3, At5G39340) and At3G28690, a putative serine/threonine protein kinase, were identified from the library screen with GAL4BD:CKI2(590-922). AHPs are the described signaling targets of canonical receptor histidine kinases, such as CRE1, AHK1 and ETR1 (Grefen and Harter, 2004). […] At3G28690 is homologous to the previously published ARABIDOPSIS PROTEIN KINASE 1 (APK1) (Hirayama and Oka, 1992) and APK2 (Ito, et al., 1997) and is designated APK3. […] APK3 has been classified as a Receptor Like Cytoplasmic Kinase (RLCK) VII (Family 1.2.2) in Arabidopsis. […] Its use in modulation of cytokinin-dependent growth responses is being pursued through both transgenic and mutant analysis.
The yeast two-hybrid assays discussed in Example 1 were conducted as follows. Polyadenylated mRNA was isolated from Arabidopsis aerial tissue using a FastTrack™ mRNA kit (Invitrogen, Carlsbad, Calif., USA). First strand cDNA was created using a cDNA synthesis kit (Stratagene, La Jolla, Calif., USA), subsequently cloned into pGADT7 (Clontech, Palo Alto, Calif., USA), and the cDNA library was transformed into the yeast strain AH109 (Clontech).

B1: full-length APK3 fusion protein (other)
chain: MATKLESFKVVEKLGVEKGEKGKMMSKKKNVKKDGDESESGFWFRFKFIFSCISSRSKVDSSMNATAVIAEPKKVIEKLEGHPAPTKDTGCAESGSSTPLMSGELKYSSKLRIFMFNDLKLATRNFRPESLLGEGGFGCVFKGWIEENGTAPVKPGTGLTVAVKTLNPDGLQGHKEWLAEINFLGNLVHPSLVKLVGYCMEEDQRLLVYEFMPRGSLENHLFRRTLPLPWSVRMKIALGAAKGLAFLHEEAEKPVIYRDFKTSNILLDGEYNAKLSDFGLAKDAPDEKKSHVSTRVMGTYGYAAPEYVMTGHLTTKSDVYSFGVVLLEILTGRRSVDKSRPNGEQNLVEWVRPHLLDKKRFYRLLDPRLEGHYSIKGAQKATQVAAQCLNRDSKARPKMSEVVEALKPLPNLKDFASSSSSFQTMQPVAKNGVRTQGGGFVSRNGPPMRSLSSLNLPQASPYRYARQSPKPKGKEP
notes: Full-length APK3 tested as a fusion protein in the two-hybrid assay; also called AtAPK3; At3G28690; not shown: two-hybrid fusion partner
For the molecule B1, the binding result is given as “no binding”.

B2: APK3(115-476) (other)
chain: MFNDLKLATRNFRPESLLGEGGFGCVFKGWIEENGTAPVKPGTGLTVAVKTLNPDGLQGHKEWLAEINFLGNLVHPSLVKLVGYCMEEDQRLLVYEFMPRGSLENHLFRRTLPLPWSVRMKIALGAAKGLAFLHEEAEKPVIYRDFKTSNILLDGEYNAKLSDFGLAKDAPDEKKSHVSTRVMGTYGYAAPEYVMTGHLTTKSDVYSFGVVLLEILTGRRSVDKSRPNGEQNLVEWVRPHLLDKKRFYRLLDPRLEGHYSIKGAQKATQVAAQCLNRDSKARPKMSEVVEALKPLPNLKDFASSSSSFQTMQPVAKNGVRTQGGGFVSRNGPPMRSLSSLNLPQASPYRYARQSPKPKGKEP
notes: Second truncated APK3 tested as a fusion protein in the two-hybrid assay; also called second truncated APK3 protein; At3G28690; not shown: two-hybrid fusion partner
Turning to B2, the binding result is given as “no binding”.
